The text below walks through data of paper PMC5331220, “Oxidation of F-actin controls the terminal steps of cytokinesis” (Nature Communications, 2017).

What is called Kd is the concentration at which binding is half-saturated. Usually stoichiometry N stands for a count of units in the complex or per binding partner.

B1: MICAL1^918-1067 wild-type (C-terminal domain of human MICAL1) (domain or fragment, UniProt Q8TDZ2 918-1067, looked up)
chain: KEEEMKRFCKAQTIQRRLNEIEAALRELEAEGVKLELALRRQSSSPEQQKKLWVGQLLQLVDKKNSLVAEEAELMITVQELNLEEKQWQLDQELRGYMNREENLKTAADRQAEDQVLRKLVDLVNQRDALIRFQEERRLSELALGTGAQG
notes: also called C-term MICAL1; source: E. coli BL21-CodonPlus-RILP or BL21-Gold, purified (HisTrap, rTEV cleavage, Superdex-75); not shown: His6, N-terminal, cleaved
B2: MICAL1^918-1067 S1 mutant (E946K, V950D, E953K, V971E, L975R, V978E) (domain or fragment, human, UniProt Q8TDZ2 918-1067, looked up)
chain: KEEEMKRFCKAQTIQRRLNEIEAALRELKAEGDKLKLALRRQSSSPEQQKKLWEGQLRQLEDKKNSLVAEEAELMITVQELNLEEKQWQLDQELRGYMNREENLKTAADRQAEDQVLRKLVDLVNQRDALIRFQEERRLSELALGTGAQG
notes: the supplement and the results print V978E; source: E. coli BL21-CodonPlus-RILP or BL21-Gold, purified (HisTrap, rTEV cleavage, Superdex-75); not shown: His6, N-terminal, cleaved
B3: Rab35^1-199 (domain or fragment)
chain: not shown
notes: Rab35 GTPase, human, residues 1-199; Loaded with GppNHp; also called GppNHp-Rab35 1-199; source: E. coli BL21-CodonPlus-RILP or BL21-Gold, purified (HisTrap, rTEV cleavage, Superdex-75); not shown: His6, N-terminal, cleaved
B4: Rab35^1-175 (domain or fragment)
chain: not shown
notes: Rab35 GTPase, human, residues 1-175 (lacks the last 26 aa); Loaded with GppNHp (assay a1) or with GDP (assay a2); also called GppNHp-Rab35 1-175; GDP-Rab35 1-175; source: E. coli BL21-CodonPlus-RILP or BL21-Gold, purified (HisTrap, rTEV cleavage, Superdex-75); not shown: His6, N-terminal, cleaved

Holding throughout (conditions): both partners purified
Assay [1] has as its target B4. Briefly: ITC; MicroCal ITC-200, 10 °C; C-terminal MICAL1 domain 60 μM in the cell, GppNHp-Rab35 480 μM added in 2 μl aliquots; 50 mM Tris pH 8, 150 mM NaCl, 2 mM MgCl2, 2 mM TCEP, 5% glycerol; one-site model. (In general: Isothermal titration calorimetry measures the heat released or taken up as one component is titrated into another.)
Assay [2] has as its target B3. The assay is described as above.
For assay [3], the target named is B1. Described as above.
Assay [4] deals with B2. The assay is described as above.
In assay [5] the target is T1, MICAL1^879-1067 wild-type (human, UniProt Q8TDZ2 879-1067).
T1 construct: source: E. coli BL21-CodonPlus-RILP or BL21-Gold, purified (HisTrap, rTEV cleavage, Superdex-75); not shown: His6, N-terminal, cleaved
T1 sequence (looked up): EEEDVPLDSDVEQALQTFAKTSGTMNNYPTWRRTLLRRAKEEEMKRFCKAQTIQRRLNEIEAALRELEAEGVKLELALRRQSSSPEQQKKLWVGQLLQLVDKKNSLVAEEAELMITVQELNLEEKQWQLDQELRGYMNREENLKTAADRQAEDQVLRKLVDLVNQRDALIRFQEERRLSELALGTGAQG
Described as above.

Assay [6] concerns the target T2, His-tagged MICAL1^FAD-CH-LIM (MICAL1^1–843) (human, UniProt Q8TDZ2 1-843).
T2 construct: MICAL1, human, amino acids 1-843 (monooxygenase/FAD, CH and LIM domains); also called 6xHis-MICAL1^FAD-CH-LIM; source: E. coli BL21-AI, purified (Ni-NTA magnetic agarose beads)
T2 sequence (looked up): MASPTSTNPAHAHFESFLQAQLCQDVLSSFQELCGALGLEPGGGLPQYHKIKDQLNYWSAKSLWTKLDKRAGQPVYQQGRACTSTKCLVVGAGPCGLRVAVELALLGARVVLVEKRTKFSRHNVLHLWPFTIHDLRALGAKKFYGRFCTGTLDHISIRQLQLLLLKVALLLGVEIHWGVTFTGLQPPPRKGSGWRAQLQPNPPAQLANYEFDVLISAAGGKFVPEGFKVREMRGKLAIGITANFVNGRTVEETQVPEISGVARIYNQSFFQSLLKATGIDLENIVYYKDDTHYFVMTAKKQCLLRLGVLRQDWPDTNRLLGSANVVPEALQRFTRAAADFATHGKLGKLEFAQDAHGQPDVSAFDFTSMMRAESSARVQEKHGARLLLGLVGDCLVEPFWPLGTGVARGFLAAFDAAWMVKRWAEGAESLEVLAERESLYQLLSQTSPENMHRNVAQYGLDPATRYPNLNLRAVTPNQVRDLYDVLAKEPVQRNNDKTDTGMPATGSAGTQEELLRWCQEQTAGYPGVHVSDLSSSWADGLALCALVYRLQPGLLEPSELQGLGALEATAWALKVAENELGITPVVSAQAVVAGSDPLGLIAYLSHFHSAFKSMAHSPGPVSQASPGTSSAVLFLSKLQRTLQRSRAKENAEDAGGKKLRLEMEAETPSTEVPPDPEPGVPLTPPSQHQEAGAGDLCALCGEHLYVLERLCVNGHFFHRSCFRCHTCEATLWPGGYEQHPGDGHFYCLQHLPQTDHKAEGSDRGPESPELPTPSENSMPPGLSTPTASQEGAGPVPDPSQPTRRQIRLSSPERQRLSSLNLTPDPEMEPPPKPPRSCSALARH
In words: pull-down; GST-MICAL1^879–1067 on glutathione Sepharose 4B beads, incubated with 6xHis-MICAL1^FAD-CH-LIM alone or with increasing amounts of Rab35-GppNHp in 50 mM Tris pH 8, 150 mM NaCl, 2 mM MgCl2, 1 mM DTT; anti-6xHis and anti-Rab35 blots.

Where “and” joins values, the source holds several entries; their conditions need not be identical. Equal values may be shown once.

With B1, the Kd in assay [1] is 8.3 µM and 4.5 µM; in assay [2] it was 4.5 µM and 5 µM and 4.8 µM. Regarding B2, in assay [1], the Kd is 7.9 µM and 6.4 µM and 7.2 µM. As to B3, the “stoichiometry N” value in assay [3] was 1.07. With B4, the entries for the “stoichiometry N” value in assay [4], in assay [3] and in assay [5] were 0.95, 1.09 and 0.8, respectively. For the same molecule, in assay [5], the equilibrium dissociation constant (Kd) came to 13 µM.

B5: GST-tagged MICAL1^879–1067 (domain or fragment, human, UniProt Q8TDZ2 879-1067, looked up)
chain: EEEDVPLDSDVEQALQTFAKTSGTMNNYPTWRRTLLRRAKEEEMKRFCKAQTIQRRLNEIEAALRELEAEGVKLELALRRQSSSPEQQKKLWVGQLLQLVDKKNSLVAEEAELMITVQELNLEEKQWQLDQELRGYMNREENLKTAADRQAEDQVLRKLVDLVNQRDALIRFQEERRLSELALGTGAQG
notes: source: E. coli BL21-AI, purified (glutathione Sepharose 4B)
Regarding B5, in assay [6], the binding result is given as “binds”.
